In the DeepSol protein solubility set:

Test: soluble on expression in E. coli; label from the status in PepcDB or PDB records

Soluble on expression in E. coli, soluble:
MSEHLTLPTNKPQVTHFSSGPCAKHPGWSVSNLENACLGRSHRSEDGKAKLSEVIERSKQILGLPADYRLGIVPASDTGAVEMALWSLLGQRPLDILAWESFGQEWVKDVVDELKLPDVRLLKAPYGGLPNLDEVDFSHDVVFLWNGTTSGVRVPNGDWIKDDRQGLTICDATSAVFAMDIPWEKIDVLTYSWQKVLGGEAQHGVIVLSPRAVERLQTYEPAWPIPKIFRLSQKGKLIEGIFKGDTINTPSMLCVEDALDALIWAESVGGLPGLISRSEANLAAIAQWVKQSNWADFLAEKPETRSCTSICLKIVDAAFASLSAEDQGKFAKKLAKLLEKQQVAYDIAPYRAAPPGLRIWGGATVETADIEALLPWLDWAYANVKAEFVPVA
MKKGHHHHHHGSQYNPQVADLKAFSKHIYNAYLKNFNMTKKKARSILTGKASHTAPFVIHDIETLWQAEKGLVWKQLVNGLPPYKEISVHVFYRCQCTTVETVRELTEFAKSIPSFSSLFLNDQVTLLKYGVHEAIFAMLASIVNKDGLLVANGSGFVTREFLRSLRKPFSDIIEPKFEFAVKFNALELDDSDLALFIAAIILCGDRPGLMNVPRVEAIQDTILRALEFHLQANHPDAQYLFPKLLQKMADLRQLVTEHAQMMQRIKKTETETSLHPLLQEIYKDMY
DPVSDITDLNYWKTPEQFDSFVFGLHSRFRSHSWNMFLLGEARSDVFGGIPFGGEATQGMERFPYNTLNAENPGISGFGDLYQNINQMNLFISRTLHTDVLTESARNYYLGQVYGLRAYYMYQLYRSWGDVVFTEEPSLGFEVGKLAKAATPAAEIFEQVKKDIESSLSYFGSDYTIKEKKSLWSKAATLMLKADVYLWSAHRDGGEGDARTAKNALVDIQNNISRSNLDLMDTYQGVFAYDNKGNKEIIFTIHNELFEYNLWNGNNDLFPQADYLGKFYNADGTLINTSVENNFGIMRLMVKLENFKKFLPGDTRRDVTLKDVYNKVENGKLELVGVYPHKYWGVMNGSTRVRCDDYPIYRYSDLLLMLAEAKVLLGEDPATEINRVRRRAFGDAYDASTVGFPNQEVDKRPADAVLQERLFEFMLEGKRWYDLRRFGDSYVLDYTPAEPARLLWPINQGALTNNPLLKQTVGY
MSLAIWAAGDTAGVATVVRTLRSAPRPPGAAMVVAPDGSVSGSVSGGCVEGAVYELAAEVAQTGIPRLEHYGVSDDTAFAVGLTCGGIIDVFVEPVSRATFPELGELADDIGAQRPVAIATVIAHPDERRVGRRLVIRPDTKSPVTGSLGSARADAAVIDDARGLLAVGRSEILEYGPDGQRRGEGMEVFVSSHAPRPRMLVFGAIDFAAALARQGSFLGYRVTVCDARAVFATPARFPTADDVVVAWPHRYLAAQAEAGGIDERTVICVLTHDPKFDVPVLEVALRLGVGYVGAMGSRKTHDDRMDRLRAAGLTDAELSRLSSPIGLDLGARTPEETAVSIAADIIARRWGGGGRPLADIAGRIHHDAQVAGEFKDYLTRHEGHHHHHH

Soluble on expression in E. coli, not soluble:
MQRLEESTSCRGVGDMRKAIIVGVGMTPVGEHWRSSLRDLAVEAILNAMDDAGIDKVDSLYVGNMASGSFVEQENLGALIADWAGLGNIPAVKIEAACASGGAAVQEGAKAVLSGLEDVVLVVGVEKMTDAWPSDATRYLGYAADAEWELFHGASFVALNALIMRLYMNTYGYKEEDLALFAVNAHANGAKNPYAMFKKPITVETVMKSPYIADPLKLFDASPVCDGAAAVIITTPEKAKELGIPKDKWIEIAGMGRAIDTINLANREDFLTLKAATIAAERAYKMAGVKPEDVDFFEVHDAFTVMAALSLEALGVAKKGEGAKLAIEGQIAIDGDYPIQTMGGLKARGHPVGATGVYQVVEAVLQLRGEAPDGIQVPDAEVGLTQNIGGTGSNITVTVLRRV
MGDNWRYEVKYDGFRTILFWTKETIRLESRNERLLTDQFPEIHDFCQRISNKVEAWLPITIDGELVHLVSPYRAHFAPIQTRSFMRKHETIAASSIKTPATLLAFDILELKGKTLVDLPYDERKKQLKALLKAIDVPLEHHHHHH
MGSDKIHHHHHHMDEALRTYIRVVELQSFTKAAEELHISQPAVSLQLKKLEEIYETELIYRQAKKFILTATGEILYHRAKQLEGLYKQVEDEISLYHHHLKGRLRIGASFTIGEYFLPEVIAKFHALYPDITIELIIENTAKIADKVELLQVDTGLIEGQVSKKDLEISAFSDDEMCIVGRADGSLTEIEQGATWIAREEGSGTREYLDHVLSTNGWNVAEKVVAWSNMAVKQMVLEGMGYTVISKCVVQTEITSGKLQTFNEAGSLMRKFSVLKNRQRLENRIAETFLTFLKENQ
MGSDKIHHHHHHMKDILVHIDDSERCSARLDIAIGLAKTFGARLTGLFARTESHRPSAVAHKASDQLTQARDAAKEAFTKACASAGITSRWWQLAHGEPGHVVSETMFCARYADLVVMGQTEPKSKIVPEEMVEHVILHCGRPVLVVPHTGSFPSVGERMALAWNAGKEAVRALNDAKPLMLKAKSVTVLSLRGPADDGSNAMGEVPQVDVLDHLAACGITASAERLAGEHIGKMDMLLSRLCDLGADLVVMGAHGHYGLSLKRGTGTRYVLAHMTVPVLMSN
MGSDKIHHHHHHMKSRKFPIRFENFSLSVDGKSVLENITLSFVEGMNVLYGPRGSGKSSLLRSIVKLNTEIFNEISRSGSVYLFDQNVEDLDDIYVRKNALYLDTSFIDAMNQYTFDEFLKLALKRKISLENFSEKLDDLGILRMLIRGQKTPLSVFSPAEKISLLLFILEQKKPRVILMDCLLDHLDDENLEKIMDMFLKMKEERTFVISTRILQRFLYIADLLVILNNGRINYTGSPKDFVLRM
MSLSTIDLHVHSNYSDGIHPPADLVKMAAERGLVAIAIADHDTVDGIDEALIAGARLGVEVVPAVELSAEHGRYRDMHILGYHLDHRDPRLVDMLAEFRINREIRGRAIVDKINQRLADGRKPLLSYDEVLNLAEGAVGRPHIGRMLIERGYARNMEDAFRRYLIPCNVPKRYIPAGDAITEIRRAGGVAVLAHPITVSDDRQVLRGIVSELVALGLDGIEVFNNMCYKDDMLFLEFLCRESGLLMTGGSDFHGFEDDVEIGSGREGHHHHHH
MGSDKIHHHHHHMNTLEIAKEVFEKEAQAILDLATNLDENFNQAVNLMLNTKGRCIVSGMGKSGHIGAKIAATLASTGTPSFFIHPGEALHGDLGMLTSEDVLIAISNSGETEEILKIIPAIKKREIPLIVMCGKKNSTLVKQGDIFLNIAVEKEACPLQLAPMSSTTATLVMGDALAAALMKVRNFKPDDFALFHPGGSLGRKLLTKVKDLMVSSNLPIVHPDTEFNDLVDVMTSGKLGLCVVLENEKLVGIITDGDLRRALKASDKPRFDFKAKEIMSINPKVVDADAMASEAEGIMLKHKIKEIIVGKEEKVVGIIQLYAIGNV
MKRFNDFSKMKAFKDAQEHGKNRYKDVGCLDNNRVKLGGAWPHEYIHANYVSTPTNPKRFICTQAPLEKTCADFWFMCLQDRVETIFMLCNYKEKGAKKCHEYLPTEDNKDTMSFKEKGQKVTVKFESSKAIKFRDNSAAKVTKTVLTVEGAGCDKLKVNHYHWIDWPDRGVPTADNAILELLEKARVSKGPIAVHCSAGIGRTGSVVMLEYVMDQLLAGQIIEDTDKIIQKIREQRNNSVQTDHQYLFVHQVMMNFFEKRGLLDEATSAIHKDFTDQYSKCVL
MYCDHFGFSEHPFALTPNPAFLFLSSRHQEAFAHLLYGIDTRAGFIELSGEVGTGKTTVIRTFLNQLDPETHRTALVFNPTVSPLGLLQGIIREFGLPGTSTEKSELLETLNRFLLDENRAGHTVVLVIDEAQNLSPEVLEQIRLISNLETERDKLIQIVLVGQPELRHLLARQELRQLDQRITVRYHLEPMGLDDTKNYIRHRIRIAAGGREPVIFSAGAVKKIFGFSGGLPRLINAACDRALLLAYTTEAREVSPAMAAAAIADVATEARPPSPSRRFAVAAALILVAALGAGTFAVTRKGGESLPSASPPPTEPAASGEQPLKRTAALAGLAAVPEKDNLSAAVNTILRSWQAPPVASSPSPADLRSLARERGLTVTELSGTLNDLARLDTPALLHITLPQGGKRLVALTSLDKGHIGIDPPIAGHSTLTGGELSTLWSGRASVIWKNFHGIPSRLKPGGRSKAVGQLQELLKGAGYYAGRISGTYDTVTQEAIRSFQTAEGLDADGRTGEKTLLLLYRRAGGFFPPGLTQGKTAARTEAGDRSRGKVAQTRSNGEQSRLEHHHHHH
